The record followed here is patent publication US20180273587A1 (AILERON THERAPEUTICS, published 2018).

Test in all cases: Ki; method not stated; unit not printed (nM per Table 6)
The target in experiment [1] is T1, MCL-1 (UniProt Q07820 172-327, limits assumed).
T1 construct: Target of the Ki columns; also called Myeloid cell leukemia 1

The target in experiment [2] is T2, BCL-2 (UniProt P10415 1-217, limits assumed).
T2 construct: Target of the Ki columns

For experiment [3], the target named is T3, BCL-XL (UniProt Q07817 1-209).
T3 construct: Target of the Ki columns

Positions of bridges follow the written chain, without caps; N, C: chain ends. Non-standard residues stand in square brackets, D forms with d. 2Nal = N[C@@H](Cc1ccc2ccccc2c1)C(=O)O; hPhe = N[C@@H](CCc1ccccc1)C(=O)O; R8 = C=CCCCCCC[C@@](C)(N)C(=O)O; Cha = N[C@@H](CC1CCCCC1)C(=O)O; S5 = C=CCCC[C@](C)(N)C(=O)O

One may read the Ki as the equilibrium dissociation constant of an inhibitor or competing ligand from its target. A low value points to higher affinity.

T1 sequence (Q07820 172-327 limits assumed): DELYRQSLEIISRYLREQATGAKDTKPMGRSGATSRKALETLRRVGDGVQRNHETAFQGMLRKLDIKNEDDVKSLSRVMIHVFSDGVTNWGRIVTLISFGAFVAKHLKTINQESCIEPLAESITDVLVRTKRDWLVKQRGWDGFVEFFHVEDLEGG
T2 sequence (P10415 1-217 limits assumed): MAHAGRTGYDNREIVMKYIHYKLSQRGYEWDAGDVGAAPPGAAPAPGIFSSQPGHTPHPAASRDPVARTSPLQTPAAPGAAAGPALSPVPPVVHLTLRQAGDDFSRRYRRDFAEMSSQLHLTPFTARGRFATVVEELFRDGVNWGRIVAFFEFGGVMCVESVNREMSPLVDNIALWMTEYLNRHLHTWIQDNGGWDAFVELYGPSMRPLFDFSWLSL
T3 sequence (Q07817 1-209): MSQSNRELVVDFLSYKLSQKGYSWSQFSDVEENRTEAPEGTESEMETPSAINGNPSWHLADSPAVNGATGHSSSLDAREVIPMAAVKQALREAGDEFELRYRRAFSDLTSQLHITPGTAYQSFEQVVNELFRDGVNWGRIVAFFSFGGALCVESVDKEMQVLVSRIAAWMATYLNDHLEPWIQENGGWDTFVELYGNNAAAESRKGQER

B1: SEQ ID NO: 1733 (peptide)
peptide: Ac-IWISAALR[R8]IGDAFN[S5]YYA-NH2
modifications: staple 9-16
SMILES: CC[C@H](C)[C@H](NC(C)=O)C(=O)N[C@@H](Cc1c[nH]c2ccccc12)C(=O)N[C@H](C(=O)N[C@@H](CO)C(=O)N[C@@H](C)C(=O)N[C@@H](C)C(=O)N[C@@H](CC(C)C)C(=O)N[C@@H](CCCNC(=N)N)C(=O)N[C@]1(C)CCCCCCC=CCCC[C@@](C)(C(=O)N[C@@H](Cc2ccc(O)cc2)C(=O)N[C@@H](Cc2ccc(O)cc2)C(=O)N[C@@H](C)C(N)=O)NC(=O)[C@H](CC(N)=O)NC(=O)[C@H](Cc2ccccc2)NC(=O)[C@H](C)NC(=O)[C@H](CC(=O)O)NC(=O)CNC(=O)[C@H]([C@@H](C)CC)NC1=O)[C@@H](C)CC
With B1, the Ki in experiment [1] is 3.6 nM; in experiment [2], 117 nM; in experiment [3], 67.8 nM.

B2: SEQ ID NO: 1734 (peptide)
peptide: Ac-IWILAALR[R8]IGDAFN[S5]YYA-NH2
modifications: staple 9-16
SMILES: CC[C@H](C)[C@H](NC(C)=O)C(=O)N[C@@H](Cc1c[nH]c2ccccc12)C(=O)N[C@H](C(=O)N[C@@H](CC(C)C)C(=O)N[C@@H](C)C(=O)N[C@@H](C)C(=O)N[C@@H](CC(C)C)C(=O)N[C@@H](CCCNC(=N)N)C(=O)N[C@]1(C)CCCCCCC=CCCC[C@@](C)(C(=O)N[C@@H](Cc2ccc(O)cc2)C(=O)N[C@@H](Cc2ccc(O)cc2)C(=O)N[C@@H](C)C(N)=O)NC(=O)[C@H](CC(N)=O)NC(=O)[C@H](Cc2ccccc2)NC(=O)[C@H](C)NC(=O)[C@H](CC(=O)O)NC(=O)CNC(=O)[C@H]([C@@H](C)CC)NC1=O)[C@@H](C)CC
Take B2: the Ki in experiment [1] stood at 19.7 nM; in experiment [2], 170 nM; in experiment [3], 96.2 nM.

B3: SEQ ID NO: 1735 (peptide)
peptide: Ac-IWIFAALR[R8]IGDAFN[S5]YYA-NH2
modifications: staple 9-16
SMILES: CC[C@H](C)[C@H](NC(C)=O)C(=O)N[C@@H](Cc1c[nH]c2ccccc12)C(=O)N[C@H](C(=O)N[C@@H](Cc1ccccc1)C(=O)N[C@@H](C)C(=O)N[C@@H](C)C(=O)N[C@@H](CC(C)C)C(=O)N[C@@H](CCCNC(=N)N)C(=O)N[C@]1(C)CCCCCCC=CCCC[C@@](C)(C(=O)N[C@@H](Cc2ccc(O)cc2)C(=O)N[C@@H](Cc2ccc(O)cc2)C(=O)N[C@@H](C)C(N)=O)NC(=O)[C@H](CC(N)=O)NC(=O)[C@H](Cc2ccccc2)NC(=O)[C@H](C)NC(=O)[C@H](CC(=O)O)NC(=O)CNC(=O)[C@H]([C@@H](C)CC)NC1=O)[C@@H](C)CC
With B3, the results for the Ki in experiment [1], in experiment [2] and in experiment [3] were 17.2 nM, 125 nM and 110 nM, respectively.

B4: SEQ ID NO: 1743 (peptide)
peptide: Ac-IWIAQALR[R8]IGDA[hPhe]N[S5]YYA-NH2
modifications: staple 9-16
SMILES: CC[C@H](C)[C@H](NC(C)=O)C(=O)N[C@@H](Cc1c[nH]c2ccccc12)C(=O)N[C@H](C(=O)N[C@@H](C)C(=O)N[C@@H](CCC(N)=O)C(=O)N[C@@H](C)C(=O)N[C@@H](CC(C)C)C(=O)N[C@@H](CCCNC(=N)N)C(=O)N[C@]1(C)CCCCCCC=CCCC[C@@](C)(C(=O)N[C@@H](Cc2ccc(O)cc2)C(=O)N[C@@H](Cc2ccc(O)cc2)C(=O)N[C@@H](C)C(N)=O)NC(=O)[C@H](CC(N)=O)NC(=O)[C@H](CCc2ccccc2)NC(=O)[C@H](C)NC(=O)[C@H](CC(=O)O)NC(=O)CNC(=O)[C@H]([C@@H](C)CC)NC1=O)[C@@H](C)CC
Turning to B4, the results for the Ki in experiment [1], in experiment [2] and in experiment [3] were 2.7 nM, 38.9 nM and 16.6 nM, respectively.

B5: SEQ ID NO: 1746 (peptide)
peptide: IWIAQALRAIGDAANAYYA
modifications: N-terminal Ac; $r8 at 9 and $ at 16 (crosslinked); 2Nal at 14; C-terminal NH2
For the molecule B5, the Ki amounted to 4.4 nM in experiment [1], 35.1 nM in experiment [2] and 19.1 nM in experiment [3].

B6: SEQ ID NO: 1736 (peptide)
peptide: Ac-IWIALALR[R8]IGDAFN[S5]YYA-NH2
modifications: staple 9-16
SMILES: CC[C@H](C)[C@H](NC(C)=O)C(=O)N[C@@H](Cc1c[nH]c2ccccc12)C(=O)N[C@H](C(=O)N[C@@H](C)C(=O)N[C@@H](CC(C)C)C(=O)N[C@@H](C)C(=O)N[C@@H](CC(C)C)C(=O)N[C@@H](CCCNC(=N)N)C(=O)N[C@]1(C)CCCCCCC=CCCC[C@@](C)(C(=O)N[C@@H](Cc2ccc(O)cc2)C(=O)N[C@@H](Cc2ccc(O)cc2)C(=O)N[C@@H](C)C(N)=O)NC(=O)[C@H](CC(N)=O)NC(=O)[C@H](Cc2ccccc2)NC(=O)[C@H](C)NC(=O)[C@H](CC(=O)O)NC(=O)CNC(=O)[C@H]([C@@H](C)CC)NC1=O)[C@@H](C)CC
Regarding B6, the Ki in experiment [1] turned out to be 11.6 nM; in experiment [2], 75.8 nM; in experiment [3] it was 37.9 nM.

B7: SEQ ID NO: 1756 (peptide)
peptide: Ac-IWIAQALR[R8]IGDAFN[S5]Y[Cha]A-NH2
modifications: staple 9-16
SMILES: CC[C@H](C)[C@H](NC(C)=O)C(=O)N[C@@H](Cc1c[nH]c2ccccc12)C(=O)N[C@H](C(=O)N[C@@H](C)C(=O)N[C@@H](CCC(N)=O)C(=O)N[C@@H](C)C(=O)N[C@@H](CC(C)C)C(=O)N[C@@H](CCCNC(=N)N)C(=O)N[C@]1(C)CCCCCCC=CCCC[C@@](C)(C(=O)N[C@@H](Cc2ccc(O)cc2)C(=O)N[C@@H](CC2CCCCC2)C(=O)N[C@@H](C)C(N)=O)NC(=O)[C@H](CC(N)=O)NC(=O)[C@H](Cc2ccccc2)NC(=O)[C@H](C)NC(=O)[C@H](CC(=O)O)NC(=O)CNC(=O)[C@H]([C@@H](C)CC)NC1=O)[C@@H](C)CC
As to B7, the Ki is 24.1 nM in experiment [1], 28.9 nM in experiment [2] and 8.6 nM in experiment [3].

B8: SEQ ID NO: 1754 (peptide)
peptide: Ac-IWIAQALR[R8]IGDAFN[S5]YAA-NH2
modifications: staple 9-16
SMILES: CC[C@H](C)[C@H](NC(C)=O)C(=O)N[C@@H](Cc1c[nH]c2ccccc12)C(=O)N[C@H](C(=O)N[C@@H](C)C(=O)N[C@@H](CCC(N)=O)C(=O)N[C@@H](C)C(=O)N[C@@H](CC(C)C)C(=O)N[C@@H](CCCNC(=N)N)C(=O)N[C@]1(C)CCCCCCC=CCCC[C@@](C)(C(=O)N[C@@H](Cc2ccc(O)cc2)C(=O)N[C@@H](C)C(=O)N[C@@H](C)C(N)=O)NC(=O)[C@H](CC(N)=O)NC(=O)[C@H](Cc2ccccc2)NC(=O)[C@H](C)NC(=O)[C@H](CC(=O)O)NC(=O)CNC(=O)[C@H]([C@@H](C)CC)NC1=O)[C@@H](C)CC
For the molecule B8, the figures for the Ki in experiment [1], in experiment [2] and in experiment [3] were 20.3 nM, 102 nM and 51.8 nM, respectively.

B9: SEQ ID NO: 1757 (peptide)
peptide: Ac-IWIAQALR[R8]IGDAFN[S5]Y[hPhe]A-NH2
modifications: staple 9-16
SMILES: CC[C@H](C)[C@H](NC(C)=O)C(=O)N[C@@H](Cc1c[nH]c2ccccc12)C(=O)N[C@H](C(=O)N[C@@H](C)C(=O)N[C@@H](CCC(N)=O)C(=O)N[C@@H](C)C(=O)N[C@@H](CC(C)C)C(=O)N[C@@H](CCCNC(=N)N)C(=O)N[C@]1(C)CCCCCCC=CCCC[C@@](C)(C(=O)N[C@@H](Cc2ccc(O)cc2)C(=O)N[C@@H](CCc2ccccc2)C(=O)N[C@@H](C)C(N)=O)NC(=O)[C@H](CC(N)=O)NC(=O)[C@H](Cc2ccccc2)NC(=O)[C@H](C)NC(=O)[C@H](CC(=O)O)NC(=O)CNC(=O)[C@H]([C@@H](C)CC)NC1=O)[C@@H](C)CC
For B9, the Ki in experiment [1] came to 8 nM; in experiment [2], 30.7 nM; in experiment [3], 12.1 nM.

B10: SEQ ID NO: 1755 (peptide)
peptide: Ac-IWIAQALR[R8]IGDAFN[S5]YLA-NH2
modifications: staple 9-16
SMILES: CC[C@H](C)[C@H](NC(C)=O)C(=O)N[C@@H](Cc1c[nH]c2ccccc12)C(=O)N[C@H](C(=O)N[C@@H](C)C(=O)N[C@@H](CCC(N)=O)C(=O)N[C@@H](C)C(=O)N[C@@H](CC(C)C)C(=O)N[C@@H](CCCNC(=N)N)C(=O)N[C@]1(C)CCCCCCC=CCCC[C@@](C)(C(=O)N[C@@H](Cc2ccc(O)cc2)C(=O)N[C@@H](CC(C)C)C(=O)N[C@@H](C)C(N)=O)NC(=O)[C@H](CC(N)=O)NC(=O)[C@H](Cc2ccccc2)NC(=O)[C@H](C)NC(=O)[C@H](CC(=O)O)NC(=O)CNC(=O)[C@H]([C@@H](C)CC)NC1=O)[C@@H](C)CC
For B10, the Ki is 23.4 nM in experiment [1], 18.9 nM in experiment [2] and 9 nM in experiment [3].

B11: SEQ ID NO: 1742 (peptide)
peptide: Ac-IWIAQALR[R8]IGDAWN[S5]YYA-NH2
modifications: staple 9-16
SMILES: CC[C@H](C)[C@H](NC(C)=O)C(=O)N[C@@H](Cc1c[nH]c2ccccc12)C(=O)N[C@H](C(=O)N[C@@H](C)C(=O)N[C@@H](CCC(N)=O)C(=O)N[C@@H](C)C(=O)N[C@@H](CC(C)C)C(=O)N[C@@H](CCCNC(=N)N)C(=O)N[C@]1(C)CCCCCCC=CCCC[C@@](C)(C(=O)N[C@@H](Cc2ccc(O)cc2)C(=O)N[C@@H](Cc2ccc(O)cc2)C(=O)N[C@@H](C)C(N)=O)NC(=O)[C@H](CC(N)=O)NC(=O)[C@H](Cc2c[nH]c3ccccc23)NC(=O)[C@H](C)NC(=O)[C@H](CC(=O)O)NC(=O)CNC(=O)[C@H]([C@@H](C)CC)NC1=O)[C@@H](C)CC
As to B11, the Ki worked out at 2.3 nM in experiment [1], 17.7 nM in experiment [2] and 14.5 nM in experiment [3].

B12: SEQ ID NO: 1732 (peptide)
peptide: Ac-I[2Nal]IAAALR[R8]IGDAFN[S5]YYA-NH2
modifications: staple 9-16
SMILES: CC[C@H](C)[C@H](NC(C)=O)C(=O)N[C@@H](Cc1ccc2ccccc2c1)C(=O)N[C@H](C(=O)N[C@@H](C)C(=O)N[C@@H](C)C(=O)N[C@@H](C)C(=O)N[C@@H](CC(C)C)C(=O)N[C@@H](CCCNC(=N)N)C(=O)N[C@]1(C)CCCCCCC=CCCC[C@@](C)(C(=O)N[C@@H](Cc2ccc(O)cc2)C(=O)N[C@@H](Cc2ccc(O)cc2)C(=O)N[C@@H](C)C(N)=O)NC(=O)[C@H](CC(N)=O)NC(=O)[C@H](Cc2ccccc2)NC(=O)[C@H](C)NC(=O)[C@H](CC(=O)O)NC(=O)CNC(=O)[C@H]([C@@H](C)CC)NC1=O)[C@@H](C)CC
notes: Row prints Ac-I2NalIAAALR$r8IGDAFN$YYA-NH2
B12: the results for the inhibition constant Ki in experiment [1], in experiment [2] and in experiment [3] were 13.7 nM, 144 nM and 55.3 nM, respectively.
